Experimental findings from patent US20250206828A1, “ANTI-ADENOSINE RECEPTOR (A2aR) ANTIBODIES AND THE USE THEREOF” (Adept Therapeutics Inc., priority 2022, published 2025) are described below.

The term EC50 denotes the concentration needed to bring the measured effect to its halfway point.

Changes are numbered by the printed parent chain.

Test [1] has as its system human PBMCs (CD4 and CD8 T cells). Description: Restoration of CD25 and CD69 activation markers on NECA-suppressed CD4 and CD8 T cells. Type of test: cell-based. How it is done:
(§1) Two hundred thousand (2×10^5) human peripheral blood mononuclear cells (PBMCs) human PBMC in complete IMDM medium were aliquoted into each well in a 96-well plate and the cells in the 96-well plate were pre-incubated with antibodies or small molecule inhibitors at indicated concentration for 90 minutes, followed by addition of T cell activator anti-CD3/28 dynabeads (Gibco, Cat #11132D) at ratio of 1:4 (Beads: PBMC, v/v) and NECA (DiscoverX, Cat #92-1191, final concentration […]). Cells were cultured in an incubator at 37° C., 5% CO2 for 24 hours. Cells were then collected and stimulated with anti-CD3/28 dynabeads in the presence of GolgiPlug™ Protein Transport Inhibitor (BD Biosciences, Cat #555028) according to manufacturer's manual for 4 hours. Thereafter, cells were incubated with human TruStain FcX block (Biolegend, Cat #422302) and True-Stain monocyte blocker (Biolegend, Cat #426103) for 15 minutes according the manufacturer's manual, and cells were then stained with surface markers PE-anti-CD4 (Biolegend, Cat #300550), PerCP-cy5.5-anti-CD8 (Biolegend, Cat #301032), APC/cy7-anti-CD3 (Biolegend, Cat #300426) and PE/cy7-anti-CD56 (Biolegend, Cat #362509), PE/cy7-anti-CD56 (Biolegend, Cat #362509), BV711-anti-CD25 (Biolegend, Cat #302636) and BV605-anti-CD69 (Biolegend, Cat #31938 After wash with FACS buffer, cells were stained with BV421-anti-IFN-γ (BD Bioscience, Cat #562988) and APC anti-IL-2 (BD Bioscience, cat #551383) using intracellular cytokine staining kit (BD Biosciences, cat #555028) following manufacturer's instruction. Stained samples were analyzed on FACSAria III machine. Data were analyzed using Flowjo software.

For test [2], the system named is human PBMCs (CD4 T, CD8 T, NK cells). Description: Restoration of IFN-γ and IL-2 production of NECA-suppressed T cells and NK cells (intracellular cytokine staining). Particulars: NECA. Type of test: cell-based. How it is done:
as §1

The target in test [3] is T1, human A2aR-expressing CHO cells (Homo sapiens, UniProt P29274).
T1 construct: expressed in transfected cells; host or cells: CHO
Description: pH-sensitive dye (Zenon pHrodo iFL RED) based internalization assay. Type of test: cell-based. As to conditions: 24 hours. From the text:
The Invitrogen™ Zenon™ pHrodo™ iFL RED human IgG Labeling Reagents (Cat. Z25612) Z25612) is low-pH sensitive dye and was used to determine the internalizing properties of the exemplary anti-A2aR antibodies following manufacture's instruction. The internalization of antibodies coupled with the Zenon™ pHrodo™ iFL RED human IgG Labeling reagents increase the fluorescence signal at low pH intracellular compartment in a cell, providing a method for visualizing internalization under fluorescent microscopy.
Twenty-five microliters (25 μL) of 4× working solution of Zenon™ pHrodo™ iFL IgG Labeling Reagent were also prepared in freestyle CHO expression medium and then added to each well of a 96-well plate containing antibodies. The solutions in the 96-well plate were mixed and incubated for 5 minutes at room temperature to allow the labeling complexes to form. Afterwards, fifty microliters (50 μl) of 2×10^6/ml human A2aR-expressing CHO cells were added to each well containing labeled antibodies. Cells were then incubated with the labeling complex for 24 hours under standard cell culture conditions. Cells were analyzed under immunofluorescent microscope (Invitrogen EVOS cell imaging system M5000) to visualize the internalization of antibodies by cells. Internalization of antibody was imaged using EVOS imaging systems (Invitrogen).

For test [4], the target named is T2, human adenosine A2A receptor (A2aR) (human, UniProt P29274 1-412). As to the kind of experiment: flow cytometry, HEK293-hA2aR cells, supernatant 1 ug/ml, average of quadruplicate. In general terms: In flow cytometry, cells or beads pass a laser one at a time.
For test [5], the target named is T2, human adenosine A2A receptor (A2aR). As to the kind of experiment: flow cytometry titration, HEK293-hA2aR cells, purified antibody.
Test [6] shares this target. Description: cell-based or functional assay.
Test [7] has the same target. Description: flow cytometry, HEK293-hA2aR cells, supernatant 1 ug/ml, average of triplicate.
Test [8] deals with cynomolgus adenosine A2A receptor (A2aR) (cynomolgus). Description: flow cytometry on PBMC, donor Cynomolgus 1.
Test [9] has as its target T2, human adenosine A2A receptor (A2aR). Description: flow cytometry titration, HEK293-hA2aR cells, purified antibody, average of 7 repeats.
Test [10] has the same target. Description: flow cytometry on PBMC, donor human 2.
Test [11] has the same target. As to the kind of experiment: flow cytometry on PBMC, donor human 1.
The target in test [12] is cynomolgus adenosine A2A receptor (A2aR) (cynomolgus). As to the kind of experiment: flow cytometry on PBMC, donor Cynomolgus 2.

T2 sequence (P29274 whole entry): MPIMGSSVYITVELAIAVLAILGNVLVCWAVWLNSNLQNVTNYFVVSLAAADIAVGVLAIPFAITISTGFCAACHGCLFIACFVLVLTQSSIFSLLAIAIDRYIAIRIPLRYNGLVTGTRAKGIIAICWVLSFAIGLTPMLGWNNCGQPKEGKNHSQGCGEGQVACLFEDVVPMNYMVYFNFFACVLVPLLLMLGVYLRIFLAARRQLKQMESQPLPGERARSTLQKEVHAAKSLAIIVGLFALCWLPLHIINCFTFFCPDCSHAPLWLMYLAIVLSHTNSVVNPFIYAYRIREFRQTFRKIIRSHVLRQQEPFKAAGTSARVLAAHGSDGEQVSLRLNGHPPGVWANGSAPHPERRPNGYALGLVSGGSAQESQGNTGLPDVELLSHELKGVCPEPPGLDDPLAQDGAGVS
T1 sequence (P29274 whole entry): as above

Regarding `Cc1ccc(-c2nc(N)nc3c2nnn3Cc2cccc(CO[C@H]3CCOC3)n2)o1` [CPI-444], in test [1] (test substance 2 μg/ml), the “% of cells CD25+, CD4 T cells” value was 62.9%; the “% of cells CD25+, CD8 T cells” value stood at 35.9%; the “% of cells CD69+, CD4 T cells” value amounted to 52.3%; the “% of cells CD69+, CD8 T cells” value is on record as 52.3%. For the same molecule, in [2] (test substance 2 μg/ml), the “% of cells IFNγ+, CD4 T cells” value is recorded as 3.66%; the “% of cells IFNγ+, CD8 T cells” value stood at 11.6%; the “% of cells IFNγ+, NK cells” value is listed as 15.1%; the “% of cells IL-2+, CD4 T cells” value is 12.7%. Also, the “% of cells IL-2+, CD8 T cells” value in test [2] (test substance 2 μg/ml) was 3.05%. The “induction of internalization (pHrodo fluorescence microscopy, FIG. 3)” value in test [3] is “did not induce internalization”.
For the molecule `Cc1c(C#N)cccc1-c1cc(-c2cn(Cc3cccc(C(C)(C)O)n3)nn2)nc(N)n1` [AB928], in test [1] (test substance 1 μg/ml), the “% of cells CD25+, CD4 T cells” value is recorded as 59.7%; the “% of cells CD25+, CD8 T cells” value came to 32.7%; the “% of cells CD69+, CD4 T cells” value was 57.6%; the “% of cells CD69+, CD8 T cells” value came to 55.3%. In test [2] (test substance 1 μg/ml), the “% of cells IFNγ+, CD4 T cells” value is 4.07%; the “% of cells IFNγ+, CD8 T cells” value was determined as 14.4%; the “% of cells IFNγ+, NK cells” value turned out to be 15%; the “% of cells IL-2+, CD4 T cells” value is reported as 13.1%. Besides, the “% of cells IL-2+, CD8 T cells” value in test [2] (test substance 1 μg/ml) was determined as 3.15%. Further, the “induction of internalization (pHrodo fluorescence microscopy, FIG. 3)” value in test [3] is given as “did not induce internalization”.

B1: 3F8-12E9 (antibody, from another filing, V domains shown)
VH: QVQLQQPGTELVKPGAPVKLSCKASGFTFTRYWMNWVKQRPGRGLEWIGRIDPSDSETHYNHKFWGKATLTVDKSSSTAYIQLNSLTSEDSAVYYCLRSLYGKGDYWGQGTTLTVSS
VL: DVLMTQTPLSLSVGLGDQASISCRSSQSIVHSNGNTYLEWYLQRPGQSPKLLIYKVSNRFSGVPDRFSGSGSGTDFTLKISRVEAEDLGVYYCYQGSHVPLTFGSGTKLEIK
In the case of B1, in test [4], the MFI was 1920 MFI. This molecule also had an EC50 in [5] of 0.48 nM. The same molecule gave an IC50 of blocking activity, cAMP-Glo, 300 nM NECA, HEK293-hA2aR cells, supernatant (average of triplicate) in [6] of 1 nM.

B2: 1B5-3D7 (antibody, from another filing, V domains shown)
VH: B1 VH with A24T, Y32F, K38R, S54Y, H59Q, G66D, K67R, A79V, N84S, L97G
VL: B1 VL with T7S, S12P, G14S, D75Y, K79R, V90I, Y94F, K108T, I111L
In test [7], B2 showed an MFI of 1960 MFI.

B3: 3F6-9G5 (antibody, from another filing, V domains shown)
VH: B1 VH with K19R, T28A, R31S, K38R, T58A, N61H, A79V, S85G, Q109H
VL: B1 VL with G14R, I29L, S32R
In test [8], B3 yielded a % of A2aR+ CD4+ T cells of 1.36%, a % of A2aR+ CD8+ T cells of 0.06%, a % of A2aR+ NK cells of 3.34% and a % of A2aR+ NKT cells of 0.85%. Also, the EC50 in [9] amounted to 0.71 nM. In test [10], this molecule showed a % of A2aR+ CD4+ T cells of 0.48%, a % of A2aR+ CD8+ T cells of 0.03%, a % of A2aR+ NK cells of 0.99% and a % of A2aR+ NKT cells of 0.47%. In test [11], this molecule showed a % of A2aR+ CD4+ T cells of 0.67%, a % of A2aR+ CD8+ T cells of 0.06%, a % of A2aR+ NK cells of 1.15% and a % of A2aR+ NKT cells of 0.62%. In test [12], the % of A2aR+ CD4+ T cells was determined as 3.26%, the % of A2aR+ CD8+ T cells turned out to be 0.14%, the % of A2aR+ NK cells was found to be 2.63% and the % of A2aR+ NKT cells was 1.14%. In [6], this molecule gave an IC50 of blocking activity, cAMP-Glo, 300 nM NECA, HEK293-hA2aR cells, supernatant (average of triplicate) of 1.3 nM; an IC50 of blocking activity, cAMP-Glo, 1.25 uM NECA, HEK293-hA2aR cells, purified antibody of 0.53 nM; an IC50 of blocking activity, cAMP-Glo, 5 uM Adenosine, HEK293-hA2aR cells, purified antibody of 0.93 nM. In test [7], the MFI was determined as 2040 MFI.
